Measured values as given in publication PMC5377238.

Substrate: C[S+](CC[C@H](N)C(=O)[O-])C[C@H]1O[C@@H](n2cnc3c(N)ncnc32)[C@H](O)[C@@H]1O
Experiment: purified protein
Conditions: pyruvoyl group (converted Ser68)

B1: human S-adenosylmethionine decarboxylase (hAdoMetDC) (Homo sapiens) (protein)
chain 1: MEAAHFFEGTEKLLEVWFSRQQPDANQGSGDLRTIPRSEWDILLKDVQCSIISVTKTDKQEAYVLSE
chain 2: SSMFVSKRRFILKTCGTTLLLKALVPLLKLARDYSGFDSIQSFFYSRKNFMKPSHQGYPHRNFQEEIEFLNAIFPNGAAYCMGRMNSDCWYLYTLDFPESRVISQPDQTLEILMSELDPAVMDQFYMKDGVTAKDVTRESGIRDLIPGSVIDATMFNPCGYSMNGMKSDGTYWTIHITPEPEFSYVSFETNLSQTSYDDLIRKVVEVFKPGKFVTTLFVNQSSKCRTVLASPQKIEGFKRLDCQSAMFNDYNFVFTSFAKKQQQQQS
Km: 3.1 ± 1.8 µM
